Common to all, as to type: biochemical, Pseudomonas putida CBB5
Data set [1] addresses T1, cytochrome c reductase (Ccr) (Pseudomonas putida, UniProt H9N291).
T1 construct: 87 μM bovine cytochrome c (type Ill; Sigma), and 1-20 μg CBB5 protein (depending on purity); made in house; host or cells: column fractions of the natural strain Pseudomonas putida CBB5; not recombinant
The data set can be described thus: NAD(P)H:cytochrome c oxidoreductase activity. As to the method: Enzyme Activity Assays. NADH:cytochrome c oxidoreductase (cytochrome c reductase, Ccr) activity was determined as described by Ueda et al. (1972). A typical 1-mL reaction contained 300 μM NADH, 87 μM bovine cytochrome c (type Ill; Sigma), and 1-20 μg CBB5 protein (depending on purity) in 50 mM KPi buffer. The activity was determined by monitoring the increase in absorbance at 550 nm due to reduction of […] cytochrome c at 30° C. An extinction coefficient of 21,000 M^−1 cm^−1 for reduced minus oxidized cytochrome c was used for quantitating the activity. One unit of activity was defined as one μmol of cytochrome c reduced per minute.

Substrate in data set [2]: Cn1c(=O)[nH]c2ncn(C)c2c1=O
In words: Methylxanthine N-demethylase activity assay with purified Ndm plus partially purified Ccr. Particulars: other: saturating Ccr, 50 μM Fe2+, 30° C., 50 mM KPi pH 7.5. The protocol: (§1) Methylxanthine N-demethylase activity assay contained, in 1-mL total volume, 0.5 mM methylxanthine, 1 mM NADH, 50 μM Fe(NH4)2(SO4)2, and an appropriate amount of Ndm (0.08-7.5 mg protein, depending on purity of the protein) in 50 mM KPi buffer. Approximately 4 U of partially purified Ccr was added to reaction mixture when assaying Ndm in Phenyl Sepharose and Q Sepharose eluant-fractions (Ccr was not added to the enzyme reaction mixture when assaying Ndm activity in DEAE Sepharose eluant-fractions because Ccr co-eluted with Ndm). The reaction mixture was incubated at 30° C. with 300 rpm shaking on an incubating microplate shaker (VWR). Periodically, a small aliquot was sampled from the reaction mixture and mixed with equal volume of acetonitrile for quantifying concentrations of methylxanthines and N-demethylated products by HPLC. One unit of N-demethylase activity was defined as the consumption of one μmole methylxanthine per minute. When Ndm was coupled with the reductase and ferredoxin components of naphthalene dioxygenase of Pseudomonas sp. strain 9816 (Haigler & Gibson, 1990a; Haigler & Gibson, 1990b), 30 and 100 μg of the respective proteins were used. Spinach ferredoxin reductase and ferredoxin were also substituted for Ccr as described by Subramanian et al. (1979).
(§2) Determination of Kinetic Parameters. Apparent kinetic parameters of Ndm were determined by measuring the initial rate of disappearance (vo) of paraxanthine or 7-methylxanthine in 50 mM KPi buffer (pH 7.5) at 30° C. The paraxanthine and 7-methylxanthine concentrations ([S]) used in these experiments were from 20 to 500 μM. Substrates were incubated with Ndm and Ccr under standard conditions for 15 minutes. At 1, 5, 10, and 15 minutes, samples were removed from the reaction mixtures to quantitate substrate concentrations by HPLC. Plots of substrate concentrations against time were used to determine the initial rates of disappearance of substrates which were linear over 15 minutes. The apparent kinetic parameters were determined from Michaelis-Menten plots of Vo against [S] fitted with the equation
(§3) Determination of Oxygen Requirement. Oxygen consumption by Ndm during N-demethylation of paraxanthine was determined in a closed reaction vessel equipped with a Clarke-type oxygen electrode (Digitial Modell 0, Rank Brothers Ltd., Cambridge, England). […] After 13 minutes, a 100-μL aliquot was withdrawn from the reaction, immediately mixed with equal volume of acetonitrile to stop the enzyme reaction, and analyzed for N-demethylation product by HPLC. Background oxygen consumption, possibly due to NADH oxidase enzyme activity in the partially purified Ccr, was quantitated in control reactions containing all reaction components except paraxanthine. […]

Substrate in data set [3]: Cn1cnc2[nH]c(=O)[nH]c(=O)c21
Described as above. Particulars: other: saturating Ccr, 50 μM Fe2+, 30° C., 50 mM KPi pH 7.5. As to the method:
as §1, §2, §3

Substrate in data set [4]: Cn1c(=O)[nH]c2ncn(C)c2c1=O
The data set can be described thus: Methylxanthine N-demethylase assay and kinetics, NdmA-His6 with His6-NdmD. Particulars: other: NdmA-His6, 30° C., pH 7.5, ∞ where no activity. The protocol: (§4) Methylxanthine N-demethylase activity assay contained, in 1-ml total volume, 0.5 mM methylxanthine, 1 mM NADH, 50 μM Fe(NH4)2(SO4)2, and an appropriate amount of NdmA-His6 or NdmB-His6 (7.4 μg-2.5 mg protein depending on substrate specificity) in 50 mM KPi buffer (pH 7.5). Approximately 4 U of partially purified reductase, prepared as described previously (Summers et al., 2011) or 59 U of purified His6-NdmD was added to reaction mixture. Catalase from bovine liver (4,000 U) was also added to reactions containing His6-NdmD. The reaction mixture was incubated at 30° C. with 300 rpm shaking on an incubating microplate shaker (VWR, Radnor, Pa.). Periodically, a small aliquot was sampled from the reaction mixture and mixed with equal volume of acetonitrile for quantifying concentrations of methylxanthines and N-demethylated products by HPLC. One unit of N-demethylase activity was defined as the consumption of one […] methylxanthine per minute.
(§5) Apparent kinetic parameters of NdmA-His6 and NdmB-His6 were determined by measuring the initial rate of disappearance (vo) of methylxanthines in 50 mM KPi buffer (pH 7.5) at 30° C. The initial substrate concentrations (ESI) used in these experiments were from 25 to 500 μM. Substrates were incubated with His6-NdmD plus either NdmA-His6 or NdmB-His6 under standard conditions for 15 minutes. At 1, 5, 10, and 15 minutes, samples were removed from the reaction mixtures to quantitate substrate concentrations by HPLC. Plots of substrate concentrations against time were used to determine the initial rates of disappearance of substrates which were linear over 15 minutes. The apparent kinetic parameters were determined from Michaelis-Menten plots of vo against [S] fitted with the equation

Substrate in data set [5]: Cn1c(=O)[nH]c2nc[nH]c2c1=O
The data set is described as above. Particulars: other: NdmA-His6, 30° C., pH 7.5, ∞ where no activity. As to the method:
as §4, §5

Substrate in data set [6]: Cn1c(=O)c2c(ncn2C)n(C)c1=O
The description is as above. Particulars: other: NdmA-His6, 30° C., pH 7.5, ∞ where no activity. The protocol: as §4, §5

Substrate in data set [7]: Cn1c(=O)c2[nH]cnc2n(C)c1=O
The description is as above. Particulars: other: NdmA-His6, 30° C., pH 7.5, ∞ where no activity. As to the method:
as §4, §5

Substrate in data set [8]: Cn1cnc2c1c(=O)[nH]c(=O)n2C
The data set can be described thus: Methylxanthine N-demethylase assay and kinetics, NdmB-His6 with His6-NdmD. Particulars: other: NdmB-His6, 30° C., pH 7.5, ∞ where no activity. The protocol:
as §4, §5

Substrate in data set [9]: Cn1c(=O)c2c(ncn2C)n(C)c1=O
The description is as above. Particulars: other: NdmB-His6, 30° C., pH 7.5, ∞ where no activity. As to the method:
as §4, §5

Substrate in data set [10]: Cn1c(=O)[nH]c(=O)c2[nH]cnc21
The description is as above. Particulars: other: NdmB-His6, 30° C., pH 7.5, ∞ where no activity. The protocol: as §4, §5

Substrate in data set [11]: Cn1c(=O)c2[nH]cnc2n(C)c1=O
Described as above. Particulars: other: NdmB-His6, 30° C., pH 7.5, ∞ where no activity. As to the method: as §4, §5

Consider four molecules from patent US8951752B2, “N-demethyase genes and uses thereof” (priority 2011, dated 2015).

The Km is the concentration of substrate that gives half-maximal velocity. As a reminder, the kcat is the number of substrate molecules converted per active site and unit of time at saturation. As usually defined, the kcat/Km is the turnover number divided by the Michaelis constant.

T1 sequence (H9N291 whole entry): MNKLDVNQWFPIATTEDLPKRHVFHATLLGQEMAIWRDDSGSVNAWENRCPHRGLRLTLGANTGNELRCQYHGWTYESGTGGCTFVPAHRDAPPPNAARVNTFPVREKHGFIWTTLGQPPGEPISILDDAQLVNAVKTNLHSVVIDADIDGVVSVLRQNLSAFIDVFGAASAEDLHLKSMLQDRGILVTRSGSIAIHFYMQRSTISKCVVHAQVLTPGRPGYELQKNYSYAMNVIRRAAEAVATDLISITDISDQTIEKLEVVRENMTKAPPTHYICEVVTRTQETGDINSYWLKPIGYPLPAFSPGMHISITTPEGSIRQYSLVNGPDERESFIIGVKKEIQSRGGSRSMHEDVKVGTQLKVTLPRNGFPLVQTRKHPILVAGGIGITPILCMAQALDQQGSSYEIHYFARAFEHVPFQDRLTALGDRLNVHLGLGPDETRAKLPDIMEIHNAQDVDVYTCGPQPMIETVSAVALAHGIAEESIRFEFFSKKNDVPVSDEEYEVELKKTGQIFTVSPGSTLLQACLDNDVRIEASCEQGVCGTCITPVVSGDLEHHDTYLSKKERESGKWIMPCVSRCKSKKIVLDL

On to `NC(=O)C1=CN([C@@H]2O[C@H](COP(=O)(O)OP(=O)(O)OC[C@H]3O[C@@H](n4cnc5c(N)ncnc54)[C@H](OP(=O)(O)O)[C@@H]3O)[C@@H](O)[C@H]2O)C=CC1` [NADPH], for which, in data set [1], the “Ccr activity relative to that with NADH” value turned out to be 22%.

B1: N-demethylase (Ndm: NdmA and NdmB subunits) (Pseudomonas putida) (protein)
chain 1: MEQAIINDEREYLRHFWHPVCTVTELEKAHPSSLGPLAVKLLNEQLVVAKLGDEYVAMRDRCAHRSAKLSLGTVSGNRLQCPYHGWQYDTHGACQLVPACPNSPIPNKAKVDRFDCEERYGLIWIRLDSSFDCTEIPYFSAANDPRLRIVIQEPYWWDATAERRWENFTDFSHFAFIHPGTLFDPNNAEPPIVPMDRFNGQFRFVYDTPEDMAVPNQAPIGSFSYTCSMPFAINLEVSKYSSSSLHVLFNVSCPVDSHTTKNFLIFAREQSDDSDYLHIAFNDLVFAEDKPVIESQWPKDAPADEVSVVADKVSIQYRKWLRELKEAHKEGSQAFRSALLDPVIESDRSYI
chain 2: MKEQLKPLLEDKTYLRHFWHPVCTLNEFERANASGHGPMGVTLLGEKLVLARLNSKIIAAADRCAHRSAQLSIGRVCSNAGKDYLECPYHGWRYDEAGACQLIPACPDKSISPRAKISSFDCEVKYDIVWVRLDNSFDCTQIPYLSDFDNPDMQVIVADSYIWETVAERRWENFTDFSHFAFVHPGTLYDPFFASHPTVYVNRVDGELQFKLAPPREMKGIPPEAPMGDFTYRCTMPYSVNLEIKLWKDDSRFVLWTTASPVDNKSCRNFMIIVREKDNQPDHMHLAFQKRVLDEDQPVIESQWPLEIQTSEVSVATDKISVQFRKWHKELSLSAVEGREAFRDSVLTNVIEEEQ
notes: lane 3, natural Ndm purified from P. putida CBB5; made in house; host or cells: purified from the natural strain Pseudomonas putida CBB5 (DEAE, Phenyl and Q Sepharose); not recombinant
On to B1, for which, in [2], the Km was 50.4 ± 6.8 µM and the kcat was found to be 16.2 ± 0.6 min⁻¹. For the same molecule, in data set [3], the Km came out at 63.8 ± 7.5 µM and the kcat amounted to 94.8 ± 3.0 min⁻¹.

B2: NdmA-His6 (Pseudomonas putida) (protein)
chain: B1 chain 1
notes: made in house; host or cells: E. coli BL21(DE3)
As for B2, the Km in data set [4] stood at 52.9 µM; in data set [5], 266.6 µM; in data set [6], 37.6 µM; in data set [7] it was 9.1 µM. Moreover, the kcat in data set [4] turned out to be 2.21 s⁻¹; in data set [5], 0.26 s⁻¹; in [6], 3.21 s⁻¹; in data set [7], 1.38 s⁻¹. In addition, the kcat/Km in [4] was determined as 41700 M⁻¹ s⁻¹; in [5], 1000 M⁻¹ s⁻¹; in data set [6] it was 85000 M⁻¹ s⁻¹; in data set [7], 152000 M⁻¹ s⁻¹.

B3: NdmB-His6 (Pseudomonas putida) (protein)
chain: B1 chain 2
notes: as for B2
As to B3, the Km in [8] was 25.3 ± 5.1 µM; in data set [9], 41.7 µM; in [10], 22.4 ± 5.2 µM; in data set [11], 169.0 µM. The results for the kcat in [8], in data set [9] and in data set [10] were 0.772 ± 0.0317 s⁻¹, 0.00383 s⁻¹ and 0.528 ± 0.025 s⁻¹, respectively. The figures for the specificity constant (kcat/Km) in [8], in data set [9] and in data set [10] were 30000 M⁻¹ s⁻¹, 100 M⁻¹ s⁻¹ and 23300 M⁻¹ s⁻¹, respectively.
